Experimental data reported in the domain aggregation screens of Martell et al. (2025).

Test: soluble fraction after stress (log2 fold change); higher = more stays soluble; pooled small domains, quantitative proteomics
Details: stress: 75 degC
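Note: 20 min heating vs room temperature control held 20 min.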

HMYEVVPNMRGLTYNQATAALAAAGLKVELSDSIYDEHTQPGTVLDQSPRPNTKVKPNRVVYLTVNAF
soluble fraction (log2): -1.1

HMYFDDEELDTYKGRASNAYSPDETAQFEEVMTTMRPDEVAAWLRSLQLRGINLPDELKDEAIMLVE
soluble fraction (log2): -0.0968

HMYFGNSLFQARKRSGLSQEGVAEKLGVSRQTVSKWETGETVPDIYQSKKMARLYGVSLDEL
soluble fraction (log2): 0.206

HMYFNTADLKADSIHYGSTEQSVIKILGEPEYRETFVDNNVSYELFSYKGNLLLSFVENSLVSL
soluble fraction (log2): 0.147

HMYGTERILAQLANYGIPNKLAFQIQDFYKEETLQIVEQQPYRLVEDIQGMGFKIADQLAEELGI
soluble fraction (log2): -0.307

HMYIDLHEIWKSLTDEEQTVVKLLETEPAHVDTLIENSQIPASRILATLTLLEVRGIVKRLPGRMFSLAD
soluble fraction (log2): -3.61

HMYIENIGDYLKSHDIKPSYQRIKVFEYLMQHKNHPTVDMIYKSLVDEIPTLSKTTVYNTLNLFIEKQI
soluble fraction (log2): -1.55

HMYITGAVIRKLREKNNITQLQLAERLRVSDKTISKWETGKGYPDITLLEPIAKTFSVSVTELISGDI
soluble fraction (log2): -2.46

HMYKNLRAFRESLGMTQKDFAASLSIGLSTYNGYEVGAREPKSDFWIAVARKYGVTIDYLMGFSDDPHK
soluble fraction (log2): -1.46

HMYKSSRASKSEVNKFLKFIIQSLDKRGFLQPGHKRQSMIRNIENIFYRTNLSDQEIRILLGIFSTLNK
soluble fraction (log2): -0.9

HMYLELVTKEGGSFDEPDYWGRRKLAYEIAGKTEGNYVVVKYTAEPATSDELDRVLNLNESVIRTKILRK
soluble fraction (log2): 0.00439

HMYLHSEFSPVTGQELHMKYDDSSTEEDPVMLVEGKDIQGNDFVKKIHLNDVDPENATPAEMTALRVHL
soluble fraction (log2): 0.206

HMYLLPVTSTELKGNYPNPFNPETTISFDLKDAERVNLSIYNLKGQLVRTLVNSDLPIGRHRLIWDGNDS
soluble fraction (log2): -0.622

HMYLPGERMRIKITALGSNPKQGVGYLPDGMMVVVDEAATLVGRFVEIEFVKFLQTNSGRMMFAKVAT
soluble fraction (log2): -1.96

HMYMKGKVKWFDSKKGYGFITSENGKEIFVHFSGIAAKGFKSLNEGQTVEFEVANGAKGEQAVNVTV
soluble fraction (log2): -1.23

HMYMKTITEQFGERLKKIRTQKSLSQEQLSYLADIDRSYISDVERGARNISLENIYKLASALNIPPYLVLL
soluble fraction (log2): -0.341

HMYMLYQQLADSLRDKIYEGTYTFGDKIPSERTLAATFGISHLTVRKALAILEEEGLLDRRQGNGTFVRV
soluble fraction (log2): -1.09

HMYNIDSFMTKNYPTMERFTLSDVQKKYKTTFGLFVKQDELASMIEKTGRFNITSSKNVKYVNR
soluble fraction (log2): -1.88

HMYNPAYDAEIKVILELARHGYWEEARERADELLKAAPDDTGVKRIQTWVRQQEQRMREQAIEDSIRA
soluble fraction (log2): -0.288

HMYPEETVNKILDVSMQLFLEKGYEHTSIQDIVNHLGGLSKGAIYHHFKSKEDILDGVMNKLYQNN
soluble fraction (log2): -1.58

HMYPGQILEIYLDEIKRLYLNGLSSADIFAEIKEGSIPSVKKAIRSMKDGSAPVKITEAEESTRIAPS
soluble fraction (log2): -0.543

HMYPTPAAANRHFLDKWGHQEAYLGKVLNSRSRASEILNGKRPLSLSDLRTLRDNLGIPVDLLL
soluble fraction (log2): -0.648

HMYQKERDKEISEIETFLKKITNANGTRAYSDESIADMSYVELLNLYEGITSKLTEEEIENI
soluble fraction (log2): 0.0659

HMYQPLYEQIKRMLTQSLIDGEWKAGEMIPSEMELAARFKVSQGTVRKAIDELVSENILMRRQGKGTFVH
soluble fraction (log2): -0.962

HMYSDDNKSILNLIDNLFNKENIKIDINAKKLLSNYLGVDRLVTKGEIEKAILFAGTKKHLSIEDISAFLS
soluble fraction (log2): -0.104

HMYSFPHQLLKLRTEKQLSQAELATRLFVSRQAVSKWENGDAEPSIDKLILLAKVFNVSLDRLILGT
soluble fraction (log2): -4.31

HMYSIDNPPDWLKNLPKGAIRIGVEVFNQVLSKADDEDRARMAAWSAIKAKYEKADDGQWQPKAA
soluble fraction (log2): 0.0816

HMYSNDEIVNYLKNYIFDNFNLNELSDEELEEKIAELVQQQFAGQLLSLDEKVKLVNQVYSSIR
soluble fraction (log2): -0.0578

HMYSRQRDLILKALRENVVHPTADFIYTVLKEKEPNLSLATVYRNLNLLANEGIIRKIEGLDGVAHFDH
soluble fraction (log2): -1.85

HMYSVVGKKGIVIEDINYSTGTGQIKSEGEVWSAKTNEQINIPKGTEIEIESIDGVKVIVKPL
soluble fraction (log2): 0.109

HMYTDGVPALTDLKKESKPGRRQYVGVEDIPKVLGGLGITILSTSKGLMSGHQAKKKNIGGELIASV
soluble fraction (log2): 0.102

HMYTEIDDVKDLLSKIPSVNKLTTADRGMVQAARNAYDALDEDQKLYITIADVEKFNAAVEWMEEH
soluble fraction (log2): -0.186

HMYTVRDGDTVFGILNRFGVSLDELLSLNPELSNGLKAGMVLKIK
soluble fraction (log2): -0.542

HMYVADVVGMGIKDALYILENQGLRVVFTGKGVVKNQSIAVGEKIIKGEKIVLML
soluble fraction (log2): -1.88

HMYVQDPVDRLVLESALRLLREQEREIIFLHLVAGLKHREIAGLLHLPLSTVLSGYRRALTKMKSYLEE
soluble fraction (log2): -0.0135

HMYVTGETIRHLRTQRRMTQEQLAETLGVTGKAVSKWETGRGFPDMSLLEPLARALRISVPELLSGE
soluble fraction (log2): -1.07

HMYYNQGILKSGASVYGEPGITSSHRLEIPSGSFVDIVQEKDEWVYYEKNHVNHGWVLRENIYIPSL
soluble fraction (log2): 0.149

HMYYQEDHDIILEETEDVTDPYLITLRGYIFLNNLQWVAARQAFLSADERFRHRHYSALIAPIMQTIDNAA
soluble fraction (log2): 0.359

HMYYSERILTILEERGISPYRVSKETGISQSVFSNWKRKPTSRITAANLERLADYLGLPVEVLTG
soluble fraction (log2): -3.48
